The results in this text go back to publication PMC7581431.

In assay [1] the target is Lip-NKD-HisC (human (identical sequence in mouse and human)) (UniProt Q969G9). The assay can be described thus: aggregation and co-aggregation assay read by PAGE; purified proteins in 15 mM acetate, 150 mM NaCl, pH 5.0 mixed in different ratios; after 10 min 1 M Tris-HCl pH 8.0 added to 200 mM; after 20 min boiled 10 min in LDS sample buffer; PAGE under denaturing and reducing conditions.

The next assay deals with CK1ε. Briefly: BioID proximity labeling (mass spectrometry). Conditions: +Wnt3a.
Assay [2] addresses CELSR1 [human (endogenous in Flp-In-T-REx-293)]. Briefly: BioID proximity labeling (mass spectrometry). Conditions: +Wnt3a.
For assay [3], the target named is Notch2 [human (endogenous in Flp-In-T-REx-293)]. Briefly: BioID proximity labeling (mass spectrometry). The conditions noted are these: +Wnt3a.

A value given as a limit tells only on which side of the number the result lay.

Sequence of Lip-NKD-HisC (human (identical sequence in mouse and human)) (Q969G9 whole entry): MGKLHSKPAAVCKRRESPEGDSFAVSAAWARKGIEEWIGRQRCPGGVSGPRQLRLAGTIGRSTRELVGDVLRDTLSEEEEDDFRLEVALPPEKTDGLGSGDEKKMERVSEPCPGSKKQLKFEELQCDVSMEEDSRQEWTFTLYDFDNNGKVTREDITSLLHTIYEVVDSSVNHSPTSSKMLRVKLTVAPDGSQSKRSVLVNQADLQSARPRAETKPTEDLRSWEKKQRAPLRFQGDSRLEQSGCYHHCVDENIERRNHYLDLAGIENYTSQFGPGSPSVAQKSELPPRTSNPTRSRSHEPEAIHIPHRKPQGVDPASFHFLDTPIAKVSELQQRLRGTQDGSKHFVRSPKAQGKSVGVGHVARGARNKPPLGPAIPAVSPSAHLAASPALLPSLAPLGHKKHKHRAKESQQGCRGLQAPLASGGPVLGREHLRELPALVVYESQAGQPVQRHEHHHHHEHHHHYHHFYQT

With “Lip-NKD-HisC (from UniProt Q969G9 1-470) (domain or fragment)”, in assay [1], the stoichiometry N (usually the number of molecules, sites or subunits per partner or assembly) was determined as 10.

“MBP-Axin1-HisC (from UniProt O15169 1-862) (domain or fragment)”: in assay [1], the molecules per core (molecules per core) is under 5.

As for Nkd1-BirA* (from UniProt Q99MH6) G2A, the response (unweighted spectral counts) with CK1ε amounted to 8.

In assay [2], “Nkd1-BirA* mutant G2A [murine] / CELSR1 [human (endogenous in Flp-In-T-REx-293)] chain 1 G2A” returned a response (unweighted spectral counts) of 1.

The substance “Nkd1-BirA* mutant G2A [murine] / Notch2 [human (endogenous in Flp-In-T-REx-293)] chain 1 G2A” showed a response (unweighted spectral counts) in assay [3] of 1.
